The values that follow come from publication PMC6224477.

For assay [1], the target named is ribosomes (mono- and poly-ribosomes) of HEK293 cells (human (endogenous in HEK293)).
In assay [2] the target is di-ribosome translation complex stalled on a poly(A)-containing transcript in rabbit reticulocyte lysate (rabbit (endogenous in reticulocyte lysate)). Briefly: pull-down + co-sedimentation; poly(A)-containing transcript translated in RRL supplemented with FLAG-tagged ZNF598; translation complexes affinity purified via the Twin-Strep tag of the nascent chain (StrepTactin, RNC buffer: 50 mM HEPES pH 7.6, 100 mM KOAc, 5 mM Mg(OAc)2, biotin elution), then sucrose gradient; immunoblot for ZNF598, uL2, eS24. Background: A western blot detects proteins with antibodies after separation by electrophoresis.

B1: endogenous ZNF598 (enzyme)
chain: MAAAGGAEGRRAALEAAAAAAPERGGGSCVLCCGDLEATALGRCDHPVCYRCSTKMRVLCEQRYCAVCREELRQVVFGKKLPAFATIPIHQLQHEKKYDIYFADGKVYALYRQLLQHECPRCPELPPFSLFGDLEQHMRRQHELFCCRLCLQHLQIFTYERKWYSRKDLARHRMQGDPDDTSHRGHPLCKFCDERYLDNDELLKHLRRDHYFCHFCDSDGAQDYYSDYAYLREHFREKHFLCEEGRCSTEQFTHAFRTEIDLKAHRTACHSRSRAEARQNRHIDLQFSYAPRHSRRNEGVVGGEDYEEVDRYSRQGRVARAGTRGAQQSRRGSWRYKREEEDREVAAAVRASVAAQQQEEARRSEDQEEGGRPKKEEAAARGPEDPRGPRRSPRTQGEGPGPKETSTNGPVSQEAFSVTGPAAPGCVGVPGALPPPSPKLKDEDFPSLSASTSSSCSTAATPGPVGLALPYAIPARGRSAFQEEDFPALVSSVPKPGTAPTSLVSAWNSSSSSKKVAQPPLSAQATGSGQPTRKAGKGSRGGRKGGPPFTQEEEEDGGPALQELLSTRPTGSVSSTLGLASIQPSKVGKKKKVGSEKPGTTLPQPPPATCPPGALQAPEAPASRAEGPVAVVVNGHTEGPAPARSAPKEPPGLPRPLGSFPCPTPQEDFPALGGPCPPRMPPPPGFSAVVLLKGTPPPPPPGLVPPISKPPPGFSGLLPSPHPACVPSPATTTTTKAPRLLPAPRAYLVPENFRERNLQLIQSIRDFLQSDEARFSEFKSHSGEFRQGLISAAQYYKSCRDLLGENFQKVFNELLVLLPDTAKQQELLSAHTDFCNREKPLSTKSKKNKKSAWQATTQQAGLDCRVCPTCQQVLAHGDASSHQALHAARDDDFPSLQAIARIIT
For the molecule B1, the ubiquitinated eS10 (immunoblot) in HEK293 cells pre-treated 15 min with low concentrations of anisomycin, emetine or didemnin B in assay [1] was found to be 10%.

B2: ZNF598-TEV-3xFlag (human) (enzyme)
chain: B1 chain
For B2, the percent of ZNF598 co-fractionating with ribosomes in assay [2] was in the range of 70 to 80%.
